{"source": "paper PMC5461336", "about": "“Non-canonical Glucocorticoid Receptor Transactivation of gilz by Alcohol Suppresses Cell Inflammatory Response”", "binders": {"B1": {"name": "Mut-GRE2 (dsDNA)", "DNA 1": "GGTGGAACCCAAGAGCACCCTTTGGTCCTG", "DNA 2": "CAGGACCAAAGGGTGCTCTTGGGTTCCACC"}, "B2": {"name": "Mut-GRE1 (dsDNA)", "DNA 1": "CAAACTAGCGCCAGGTCTTTACTGAATGCCC", "DNA 2": "GGGCATTCAGTAAAGACCTGGCGCTAGTTTG"}, "B3": {"name": "Wt-GRE1 (dsDNA)", "DNA 1": "CAAACTAGCGCTGTTCTTTACTGAATGCCC", "DNA 2": "GGGCATTCAGTAAAGAACAGCGCTAGTTTG"}, "B4": {"name": "Wt-GRE2 (dsDNA)", "DNA 1": "GGTGGAACCCAATGTTCTCCTTTGGTCCTG", "DNA 2": "CAGGACCAAAGGAGAACATTGGGTTCCACC"}}}
{"molecular_target": "Glucocorticoid receptor (Hu-GR), unliganded (human, UniProt P04150 1-777)", "sequence (P04150 whole entry)": "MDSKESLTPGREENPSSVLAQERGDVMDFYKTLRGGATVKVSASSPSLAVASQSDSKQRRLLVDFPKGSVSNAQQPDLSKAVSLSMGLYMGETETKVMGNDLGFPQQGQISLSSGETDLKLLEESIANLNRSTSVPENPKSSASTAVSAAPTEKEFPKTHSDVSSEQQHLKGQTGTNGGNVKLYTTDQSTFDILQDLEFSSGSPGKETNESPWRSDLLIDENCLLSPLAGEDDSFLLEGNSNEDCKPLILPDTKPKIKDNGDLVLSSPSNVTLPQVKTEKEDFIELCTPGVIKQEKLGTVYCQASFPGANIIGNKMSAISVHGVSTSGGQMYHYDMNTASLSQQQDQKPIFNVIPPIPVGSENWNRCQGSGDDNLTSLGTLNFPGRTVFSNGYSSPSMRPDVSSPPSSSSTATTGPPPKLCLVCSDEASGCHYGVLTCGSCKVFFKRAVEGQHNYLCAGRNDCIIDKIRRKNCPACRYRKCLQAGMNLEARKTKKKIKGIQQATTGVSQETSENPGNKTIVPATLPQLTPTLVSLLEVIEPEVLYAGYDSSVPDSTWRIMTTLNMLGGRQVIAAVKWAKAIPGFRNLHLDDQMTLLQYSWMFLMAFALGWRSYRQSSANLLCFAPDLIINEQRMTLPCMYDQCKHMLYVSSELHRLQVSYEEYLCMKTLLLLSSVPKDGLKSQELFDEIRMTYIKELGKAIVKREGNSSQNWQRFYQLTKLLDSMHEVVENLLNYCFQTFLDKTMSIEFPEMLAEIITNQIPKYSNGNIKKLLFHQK", "assay": "EMSA; no glucocorticoid; GR 40 ng (0.5 pmol), probe 0.5 ng (0.05 pmol), 1 ug poly(dI-dC), 25 ul; 6% non-denaturing PAGE; buffer, salt, pH and temperature not stated", "conditions": "protein: recombinant; chain copies: 2; label: 32P 5'-end; blunt"}
{"binder": "B1", "binding result": "no binding"}
{"binder": "B2", "binding result": "no binding"}
{"binder": "B3", "binding result": "binds"}
{"binder": "B4", "binding result": "binds"}
